Measured values: patent US20200199244A1 (published 2020)
Changes are numbered by the printed parent chain. “And” between values parts separate entries of the source, which are not always exact repeats. Identical values can stand only once. Blank lines part the entries; values can stand above or below the binder they belong to.

Assays:
[1] = target: T1, human CD40 (H76R) Fc fusion (human, UniProt P25942 21-193); experiment: SPR (ProteOn XPR36), dAb over CD40-Fc captured by anti-human IgG(Fc)
T1 construct: Built as wt-hCD40 with the printed substitution; also called hCD40-M1; hCD40 M1 (H76R)
Experimental: (§1) Assays were performed on a BioRad ProteOn XPR36 SPR instrument. The SPR surfaces were prepared by immobilizing 8 μg/ml anti-human IgG(Fc) antibody (Biacore/GE Healthcare) in 10 mM sodium acetate pH 4.5 on a BioRad GLC sensor chip using standard ethyl(dimethylaminopropyl) carbodiimide (EDC)/N-hydroxysuccinimide (NHS) chemistry, with ethanolamine blocking. The running buffer for immobilization and kinetic binding analysis was 10 mM sodium phosphate, 130 mM sodium chloride, 0.05% tween 20, pH 7.1. CD40-Fc fusion proteins at concentrations of 20 μg/ml were captured in the vertical orientation on these surfaces via the Fc tail, and reference surfaces lacking CD40-Fc proteins were used for reference subtraction. […] The surfaces were regenerated in both horizontal and vertical orientations with 30 s pulses of 3 M MgCl₂ followed by running buffer at 60 μl/min. Sensogram data was double-referenced and then fitted to a 1:1 Langmuir model using BioRad ProteOn Manager V.2.1.0.38 software, to determine the association rate constant (ka), the dissociation rate constant (kd), and the equilibrium dissociation constant (KD).

[2] = target: T2, wild type human CD40 Fc fusion (human, UniProt P25942 21-193); experiment: as above
T2 construct: also called wt-hCD40
Experimental: as §1

[3] = target: T3, human CD40 (H76R) Fc fusion (human, UniProt P25942 21-193); experiment: SPR ProteOn XPR36, CD40-Fc captured, dAb analyte
T3 construct: As m1 with H76R; also called hCD40-M1; not shown: human IgG1 Fc

[4] = target: T4, wild type human CD40 Fc fusion (human, UniProt P25942 21-193); experiment: SPR ProteOn XPR36, CD40-Fc captured, dAb analyte
T4 construct: also called wt-hCD40; not shown: human IgG1 Fc

[5] = target: T5, human CD40 (W109L, L121P) Fc fusion (human, UniProt P25942 21-193); experiment: SPR ProteOn XPR36;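 note: surface plasmon resonance with CD40-Fc fusions captured through their Fc on an anti-human IgG chip, sensorgrams reference-subtracted against surfaces lacking CD40-Fc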
T5 construct: As m1 with W109L and L121P; also called hCD40-M4; not shown: human IgG1 Fc

[6] = target: T6, wild type cynomolgus monkey CD40 Fc fusion (cynomolgus monkey; human); experiment: SPR ProteOn XPR36;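 note: surface plasmon resonance with CD40-Fc fusions captured through their Fc on an anti-human IgG chip, sensorgrams reference-subtracted against surfaces lacking CD40-Fc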
T6 construct: also called wt-cyno-CD40; wt-cCD40; not shown: human IgG1 Fc
T6 chain: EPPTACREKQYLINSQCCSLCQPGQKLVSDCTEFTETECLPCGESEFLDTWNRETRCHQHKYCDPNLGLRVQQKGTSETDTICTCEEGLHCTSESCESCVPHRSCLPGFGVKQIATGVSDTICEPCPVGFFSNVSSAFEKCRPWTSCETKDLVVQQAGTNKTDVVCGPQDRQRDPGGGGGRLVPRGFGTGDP

[7] = target: T7, human CD40 (W109R) Fc fusion (Chimpanzee CD40) (human, UniProt P25942 21-193); experiment: SPR ProteOn XPR36;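 note: surface plasmon resonance with CD40-Fc fusions captured through their Fc on an anti-human IgG chip, sensorgrams reference-subtracted against surfaces lacking CD40-Fc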
T7 construct: As m1 with W109R (residue of chimpanzee CD40); also called hCD40-M3; not shown: human IgG1 Fc

[8] = target: T8, human CD40 (H76R, W109L, L121P) Fc fusion (human); experiment: SPR ProteOn XPR36;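 note: surface plasmon resonance with CD40-Fc fusions captured through their Fc on an anti-human IgG chip, sensorgrams reference-subtracted against surfaces lacking CD40-Fc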
T8 construct: As m1 with H76R, W109L and L121P; also called hCD40-M5; not shown: human IgG1 Fc
T8 chain: T6 chain with S95A, L106S, R142H, Q172L

[9] = target: human CD40 on RAMOS human B cells (human, UniProt P25942 21-277); experiment: cell-based or functional assay
[10] = target: T9, human CD40 (BMS, CY24FEB06-01) (human, UniProt P25942 21-193); experiment: ELISA RBA, competition with IZ-CD40L for soluble human CD40;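 note: Neutravidin-coated 384-well plates, dAb–human CD40 complex incubated 2 h at room temperature, read-out as absorbance at 450 nm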
T9 construct: Soluble human CD40 reagent of the ELISA RBA

[11] = target: T10, human CD40 expressed on stably transfected CHO-DG44 cells (human, UniProt P25942 21-277); experiment: CHO-CD40 cell RBA, competition with IZ-CD40L (FMAT)
T10 construct: Cell-surface human CD40 in the CHO cell RBA; also called CHO-CD40; human CD40 CHO cells
Experimental: The mixture was incubated in the absence of light for 6 hours.

[12] = target: T11, human CD40 (H76R, W109L, L121P) Fc fusion (human); experiment: SPR, ProteOn XPR36; CD40-Fc captured, dAb analyte
T11 construct: Same construct as wt-hCD40 with H76R, W109L and L121P; also called hCD40-M5; hCD40-M5 (H76R, W109L, L121P); not shown: human IgG1 Fc
T11 chain: T6 chain with S95A, L106S, R142H, Q172L

[13] = target: T12, human CD40 (W109L, L121P) Fc fusion (human, UniProt P25942 21-193); experiment: SPR, ProteOn XPR36; CD40-Fc captured, dAb analyte
T12 construct: Same construct as wt-hCD40 with W109L and L121P; also called hCD40-M4; hCD40 M4 (W109L, L121P); not shown: human IgG1 Fc

[14] = target: T13, wild type cynomolgus monkey CD40 Fc fusion (cynomolgus monkey (Macaca …)); experiment: SPR, ProteOn XPR36; CD40-Fc captured, dAb analyte
T13 construct: also called wt-cCD40; wt-cyno-CD40; not shown: human IgG1 Fc
T13 chain: T6 chain

- Kd [1]: < 10 nM
- Kd [2]: < 10 nM
B1: BMS3h-38-2 (other)
VH: EVQLLASGGGLVQPGGSLRLSCAASGFTFEEEEMIWVRQAPGKGLEWVSAISGSGGSTYYADSVKGRFTISRDNSKNTLYLQMNSLRAEDTAVYYCGKEPFRYDYWGQGTLVTVSS
notes: Human domain antibody (dAb), single VH domain

- Kd [3]: 4 nM
- Kd [4]: 3.3 nM and 6.1 nM
- binding result [5]: no binding (tested: 405 nM)
- binding result [6]: no binding (tested: 405 nM)
- binding result [7]: no binding (tested: 405 nM)
- binding result [8]: no binding (tested: 405 nM)
B2: BMS3h-38-211 (other)
VH: B1 VH with G53R, S54Q
notes: domain antibody (dAb), single VH domain

- Kd [3]: 3 nM
- Kd [4]: 2.1 nM and 6 nM
- binding result [5]: no binding (tested: 405 nM)
- binding result [6]: no binding (tested: 405 nM)
- binding result [7]: no binding (tested: 405 nM)
- binding result [8]: no binding (tested: 405 nM)
B3: BMS3h-38-215 (other)
VH: B1 VH with S54L, G56W
notes: as for B2

- Kd [1]: < 10 nM
- Kd [2]: < 10 nM
B4: BMS3h-38-215 (other)
VH: B1 VH with S54L, G56W
notes: as for B1

- Kd [3]: 3.4 nM
- Kd [4]: 2.3 nM and 2.4 nM
- binding result [5]: no binding (tested: 405 nM)
- binding result [6]: no binding (tested: 405 nM)
- binding result [7]: no binding (tested: 405 nM)
- binding result [8]: no binding (tested: 405 nM)
B5: BMS3h-38-217 (other)
VH: B1 VH with G53R, S54R, G56Y
notes: as for B2

- Kd [1]: < 10 nM
- Kd [2]: < 10 nM
B6: BMS3h-38-217 (other)
VH: B1 VH with G53R, S54R, G56Y
notes: as for B1

- Kd [1]: < 10 nM
- Kd [2]: < 10 nM
B7: BMS3h-38-211 (other)
VH: B1 VH with G53R, S54Q
notes: as for B1

- EC50 ICAM1 cell assay [9]: 135 nM
- EC50 [10]: 4 nM
- EC50 [11]: 42 nM
B8: BMS3h-56-262 (other)
VH: EVQLLESGGGLVQPGGSLRLSCAASGFTFRDYEMWWVRQAPGKGLERVSAINPQGTRTYYADSVKGRFTISRDNSKNTLYLQMNSLRAEDTAVYYCAKLPQLFHDRGQGTLVTVSS
notes: domain antibody (dAb): single human VH domain

- EC50 ICAM1 cell assay [9]: 42.4 nM
- EC50 [10]: 5.7 nM
- EC50 [11]: 17 nM
B9: BMS3h-56-261 (other)
VH: B8 VH with Q101F, L102F, H104Q, D105E, R106W
notes: as for B8

B10: BMS3h-56-1 (other)
VH: B8 VH with Q101F, L102T, H104E, R106W
notes: Anti-human CD40 domain antibody (dAb), single VH domain
- binding result [12]: no binding (tested: dAb tested up to 405 nM)
- binding result [13]: no binding (tested: dAb tested up to 405 nM)
- binding result [14]: no binding (tested: dAb tested up to 405 nM)

- EC50 ICAM1 cell assay [9]: 23 nM
- EC50 [10]: 5.2 nM
- EC50 [11]: 15 nM
B11: BMS3h-56-258 (other)
VH: B8 VH with Q101F, L102Y, D105E, R106W
notes: as for B8

- EC50 ICAM1 cell assay [9]: 31.9 nM
- EC50 [10]: 3.8 nM
- EC50 [11]: 27 nM
B12: BMS3h-56-266 (other)
VH: B8 VH with Q101F, L102F, D105E, R106W
notes: as for B8

- EC50 ICAM1 cell assay [9]: 34.2 nM
- EC50 [10]: 3.3 nM
- EC50 [11]: 24 nM
B13: BMS3h-56-269 (other)
VH: B8 VH with Q101F, L102R, H104S
notes: as for B8

- EC50 ICAM1 cell assay [9]: 289 nM
- EC50 [10]: 18.8 nM
- EC50 [11]: 88 nM
B14: BMS3h-56-265 (other)
VH: B8 VH with H104Q, R106W
notes: as for B8

- EC50 ICAM1 cell assay [9]: 93.8 nM
- EC50 [10]: 11.3 nM
- EC50 [11]: 91 nM
B15: BMS3h-56-270 (other)
VH: B8 VH with Q101T, H104Q, R106W
notes: as for B8

- Kd [1]: < 10 nM
- Kd [2]: < 10 nM
B16: BMS3h-37-2 (other)
VH: EVQLLESGGGLVQPGGSLRLSCAASGFTFEWYEMQWVRRAPGKGLEWVSAISGDGYRTYYADSVKGRFTISRDNSKNTLYLQMNSLRAEDTAVYYCAKELGYFDYWGRGTLVTVSS
notes: as for B1

- Kd [3]: 2.6 nM
- Kd [4]: 2 nM
- binding result [5]: no binding (tested: 405 nM)
- binding result [6]: no binding (tested: 405 nM)
- binding result [7]: no binding (tested: 405 nM)
- binding result [8]: no binding (tested: 405 nM)
B17: BMS3h-37-2 (other)
VH: B16 VH
notes: as for B2

- Kd [1]: < 10 nM
- Kd [2]: < 10 nM
B18: BMS3h-37-11 (other)
VH: B16 VH with R39K, W106R
notes: as for B1

- Kd [3]: 2.4 nM
- Kd [4]: 1.9 nM and 2.3 nM
- binding result [5]: no binding (tested: 405 nM)
- binding result [6]: no binding (tested: 405 nM)
- binding result [7]: no binding (tested: 405 nM)
- binding result [8]: no binding (tested: 405 nM)
B19: BMS3h-37-11 (other)
VH: B16 VH with R39K, W106R
notes: as for B2
